The record followed here is patent US20050176124.

This data set has as its target T1, EGF receptor autophosphorylation site peptide DADEpYL-NH2.
T1 chain: DADEYL

B1: DSP-3-glutathione-S-transferase (GST) fusion protein (protein)
chain: MGNGMNKILPGLYIGNFKDARDAEQLSKNKVTHILSVHDSARPMLEGVKYLCIPAADSPSQNLTRHFKESIKFIHECRLRGESCLVHCLAGVSRSVTLVIAYIMTVTDFGWEDALHTVRAGRSCANPNVGFQRQLQEFEKHEVHQYRQWLKEEYGESPLQDAEEAKNILAAPGILKFWAFLRRL
On to B1, for which the “Km (phosphatase assay, release of 32P from substrate peptide)” value is “Km=1.2 µM” and the “specific activity (phosphatase assay, release of 32P from substrate peptide)” value came to 88.4 nmol/min/mg.
